Experimental data published in US20070059806, “Nucleic acid molecules, polypeptides, antibodies and compositions containing same useful for treating and detecting influenza virus infection” (Yeda Research and Development Co., Ltd. at the Weizmann …, published 2007).

B1: A22 (ssDNA)
DNA: AATTAACCCTCACTAAAGGGCTGAGTCTCAAAACCGCAATACACTGGTTGTATGGTCGAATAAGTTAA
B2: A21 (ssDNA)
DNA: AATTAACCCTCACTAAAGGGCGCTTATTTGTTCAGGTTGGTCTTCCTATTATGGTCGAATAAGTTAA

Experiments:
[1] = target: Hemagglutinin on intact virus A/Port Chalmers/1/73 (H3N2) (Influenza A virus) (UniProt P03438+P03438); assay: cell_activity
[2] = target: Influenza hemagglutinin fragment HA91-261 (globular region) (Influenza A virus (A/Port …, UniProt Q1PUD9 SEQ:1-171)); assay: ELISA; settings: tags: N-terminal 6xHis (pQE30, E. coli, Ni-NTA purified)
Chain of Influenza hemagglutinin fragment HA91-261 (globular region) (Influenza A virus (Q1PUD9 107-277): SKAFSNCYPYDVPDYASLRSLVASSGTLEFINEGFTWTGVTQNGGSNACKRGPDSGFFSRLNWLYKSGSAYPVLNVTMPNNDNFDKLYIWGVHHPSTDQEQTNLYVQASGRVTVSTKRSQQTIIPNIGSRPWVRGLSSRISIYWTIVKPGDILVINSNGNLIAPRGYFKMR

Molecule | binding result [2] | other results
AATTAACCCTCACTAAAGGGCTGAGTCTCAAAACCGCAATACACTGGTTGTATGGTCGAATAAGTTAA [A22] | – | activity [1]: 70%
AATTAACCCTCACTAAAGGG (ssDNA) [T3 primer negative control] | – | binding result ([2]; label: biotin): no binding
B1 | binds | –
B2 | binds | –
